Measurements from article PMC8219681, “Inhibition of MRN activity by a telomere protein motif” (Nature Communications, 2021).
Residue numbers refer to the chain shown, from its start. Names and notes keep the numbering of the source. Values belong to the binder of their own block, whether it stands above or below them.

Key:
[1] = target: T1, Rad50 (S. cerevisiae, FLAG-tagged at the C terminus) (S. cerevisiae, UniProt P12753 1-1312); assay: pull-down; MBP-Rif2 or MBP-Rif2-min (~5 ug, from Sf9 lysate) immobilised on amylose resin and washed; 1 ug Mre11, 500 ng Rad50 or 1 ug Xrs2 added for 1 h in 50 mM Tris-HCl pH 7.5, 200 mM NaCl, 0.2% NP40, 2 mM EDTA; eluted with 20 mM maltose; Western blot; settings: both partners purified
T1 construct: Rad50, Saccharomyces cerevisiae
T1 sequence (looked up): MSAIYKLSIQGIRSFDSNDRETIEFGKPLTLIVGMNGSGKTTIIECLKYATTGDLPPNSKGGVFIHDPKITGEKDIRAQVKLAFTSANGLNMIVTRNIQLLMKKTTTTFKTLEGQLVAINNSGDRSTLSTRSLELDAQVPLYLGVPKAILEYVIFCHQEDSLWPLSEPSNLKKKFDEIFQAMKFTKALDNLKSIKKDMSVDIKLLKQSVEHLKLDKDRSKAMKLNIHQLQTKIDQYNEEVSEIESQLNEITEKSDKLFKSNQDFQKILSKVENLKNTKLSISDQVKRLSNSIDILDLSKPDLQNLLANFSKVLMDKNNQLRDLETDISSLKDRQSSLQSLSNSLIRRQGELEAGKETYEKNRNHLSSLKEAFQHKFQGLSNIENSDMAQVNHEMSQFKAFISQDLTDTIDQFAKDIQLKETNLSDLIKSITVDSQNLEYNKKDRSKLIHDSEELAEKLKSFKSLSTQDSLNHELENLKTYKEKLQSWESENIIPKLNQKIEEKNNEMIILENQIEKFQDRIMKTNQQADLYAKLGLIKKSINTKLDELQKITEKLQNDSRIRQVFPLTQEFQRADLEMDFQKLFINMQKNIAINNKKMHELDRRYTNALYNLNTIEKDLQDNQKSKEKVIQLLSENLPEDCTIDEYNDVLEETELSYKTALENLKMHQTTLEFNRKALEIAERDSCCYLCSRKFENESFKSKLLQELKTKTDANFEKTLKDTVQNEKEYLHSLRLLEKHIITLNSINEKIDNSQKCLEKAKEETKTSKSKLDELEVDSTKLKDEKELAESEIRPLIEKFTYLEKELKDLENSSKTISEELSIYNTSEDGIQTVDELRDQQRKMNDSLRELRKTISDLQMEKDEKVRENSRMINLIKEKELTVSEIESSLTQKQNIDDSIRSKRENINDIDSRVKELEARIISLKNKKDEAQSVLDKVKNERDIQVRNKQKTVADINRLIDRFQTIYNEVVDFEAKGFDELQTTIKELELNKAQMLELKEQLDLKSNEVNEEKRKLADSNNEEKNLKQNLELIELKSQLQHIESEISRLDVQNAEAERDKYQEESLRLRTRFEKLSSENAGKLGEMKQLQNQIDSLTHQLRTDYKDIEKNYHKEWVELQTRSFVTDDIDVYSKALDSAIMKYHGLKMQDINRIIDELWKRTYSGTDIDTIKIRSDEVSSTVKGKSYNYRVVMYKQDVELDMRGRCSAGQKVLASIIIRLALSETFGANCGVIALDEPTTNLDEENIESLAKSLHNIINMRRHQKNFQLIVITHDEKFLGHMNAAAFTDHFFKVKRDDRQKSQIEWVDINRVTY

[2] = target: T2, Xrs2 (S. cerevisiae, FLAG-tagged at the C terminus) (S. cerevisiae, UniProt P33301 1-854); assay: as above; settings: both partners purified
T2 construct: Xrs2, Saccharomyces cerevisiae; also called Xrs2-FLAG; not shown: FLAG, C-terminal, kept
T2 sequence (looked up): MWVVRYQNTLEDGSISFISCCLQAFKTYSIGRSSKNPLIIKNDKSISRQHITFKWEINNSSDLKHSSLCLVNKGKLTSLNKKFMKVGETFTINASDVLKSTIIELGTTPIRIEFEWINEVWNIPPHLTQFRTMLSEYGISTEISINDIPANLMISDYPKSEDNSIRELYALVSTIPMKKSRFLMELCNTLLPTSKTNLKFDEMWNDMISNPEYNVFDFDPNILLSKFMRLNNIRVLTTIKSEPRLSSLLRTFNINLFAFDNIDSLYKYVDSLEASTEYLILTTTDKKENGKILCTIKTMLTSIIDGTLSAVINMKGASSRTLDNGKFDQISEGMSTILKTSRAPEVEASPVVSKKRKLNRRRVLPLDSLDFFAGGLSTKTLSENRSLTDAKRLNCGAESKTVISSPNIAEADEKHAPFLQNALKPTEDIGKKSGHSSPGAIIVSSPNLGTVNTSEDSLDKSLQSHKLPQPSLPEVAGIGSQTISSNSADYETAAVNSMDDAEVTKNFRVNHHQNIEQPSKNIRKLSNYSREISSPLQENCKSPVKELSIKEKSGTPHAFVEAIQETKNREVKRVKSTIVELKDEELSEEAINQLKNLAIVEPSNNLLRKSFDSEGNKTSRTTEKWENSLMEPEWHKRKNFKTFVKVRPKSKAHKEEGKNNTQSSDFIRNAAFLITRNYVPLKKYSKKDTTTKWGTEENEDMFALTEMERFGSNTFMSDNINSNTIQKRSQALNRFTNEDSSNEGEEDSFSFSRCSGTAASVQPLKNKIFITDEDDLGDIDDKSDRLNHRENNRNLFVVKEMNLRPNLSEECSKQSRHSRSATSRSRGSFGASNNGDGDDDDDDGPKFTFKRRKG

binding result [1]: binds
binding result [2]: binds
B1: MBP-Rif2 (S. cerevisiae Rif2, wild type) (natural protein, UniProt Q06208 1-395, looked up)
chain: MEHVDSDFAPIRRSKKVVDSDKIVKAISDDLEQKNFTVLRKLNLVPIKKSVSSPKVCKPSPVKERVDHVFYQKFKSMALQELGTNYLSISYVPSLSKFLSKNLRSMKNCIVFFDKVEHIHQYAGIDRAVSETLSLVDINVVIIEMNDYLMKEGIQSSKSKECIESMGQASYSGQLDFEASEKPSNHTSDLMMMVMRKINNDESIDHIVYFKFEQLDKLSTSTIIEPSKLTEFINVLSVLEKSNNIAFKVLIYSNNVSISSLLSTSLKKKLNTKYTVFEMPILTCAQEQEYLKKMIKFTFDSGSKLLQSYNSLVTCQLNNKESNLAIFFEFLKVFPHPFTYLFNAYTEIIVQSRTFDELLDKIRNRLTIKNYPHSAYNFKKNQRLPLKLTRKVHDR
notes: Rif2, Saccharomyces cerevisiae, full length, expressed from the vector pFB-MBP-Rif2-his; MBP was cleaved with PreScission protease only after elution from the resin; N-terminal place of MBP is read from the construct's name MBP-Rif2-his; also called ScRif2; not shown: MBP, N-terminal, kept

binding result [1]: binds
binding result [2]: binds
B2: MBP-Rif2-min (S. cerevisiae Rif2 F8E P10N) (natural protein, UniProt Q06208 1-395, looked up)
chain: B1 chain with F8E, P10N
notes: Rif2, Saccharomyces cerevisiae, full length, F8E P10N, expressed from the vector pFB-MBP-Rif2-min-his; MBP was cleaved with PreScission protease only after elution from the resin; N-terminal place of MBP is read from the construct's name; also called mutant Rif2; not shown: MBP, N-terminal, kept
